Measurements from US20230312744A1, “Modulatory Substance of Tumor Immune Microenvironment, and Preventive, Diagnostic and/or Therapeutic Utilization of the Same” (The University Of Tokyo, priority 2020, published 2023).

Test system: SL4 tumors
Test: Proliferation assay of subcutaneously transplanted SL4 tumor in C57BL/6 mice (tumor volume)
Assay type: in vivo
Settings: 200 μg/mouse intraperitoneally every other day from Day 1 after transplantation, vs control IgG, FIG. 13(a)
Method: In FIG. 13(a), SL4 cells (1×10^5 cells) were subcutaneously transplanted into C57BL/6 mice. The monoclonal antibody (55F3) (n=5) reacting against TCTP or control IgG (n=6) was intraperitoneally administered to the mice, every other day from one day after the transplantation (200 μg/mouse). The tumor volume was measured over time. In FIG. 13(b), on Day 13 after the transplantation, single cell suspensions were prepared from tumors, and were then subjected to a flow cytometry analysis (n=5). […] In FIG. 13(c), SL4 cells (1×10^5 cells) were subcutaneously transplanted into C57BL/6 mice (n=6). After the transplantation, DHA (50 mg/kg) was intraperitoneally […] into the mice every day. The tumor volume was measured over time. In FIG. 13(d), SL4 cells (1×10^5 cells) were subcutaneously transplanted into C57BL/6 mice (n=6). […] The tumor volume was measured over time. […] In FIG. 13(f), the amount of TCTP in sera derived from healthy subjects (people who are not affected with cancer) (n=5) and colorectal cancer patients (n=14) was quantified by immunoblotting. […] In FIG. 13 (g), (right view) the relative staining intensity by the anti-TCTP antibody was semi-quantified, and the staining intensity of the colorectal cancer tissues was compared with the staining intensity of the normal large intestinal tissues (n=45). […]

B1: 55F3: Mouse monoclonal antibody against human TCTP peptide SEQ ID NO: 25; CDRs SEQ ID NO: 1-6, VH SEQ ID NO: 19, VL SEQ ID NO: 22 (antibody, listed as Mus musculus)
VH: MRVLILLWLFTAFPGILSDVQLQESGPGLVKPSQSLSLTCTATGYSIASDYAWNWIRQFPGNKLEWMGYINYSGSTGYNPSLKSRISITRDTSKNQFFLQLNSVTTEDTATYYCARFEAGYWGQGTTLTVSSAKTTPPSVYPLAPGSAAQTNSMVTLGCLVKGYFPEPVT
VL: MDMRTPAQFLGILLLWFPGIKCDIKMTQSPSSMSASLGERVTITCKASQDINRYLSWFQQKPGKSPKTLIYRANRLVDGVPSRFSGSGSGQDYSLTISSLEYGDMGIYYCLQYNEFPLTFGAGTKLELKRADAAPTVSIFPPSSEQLTSGGASVVCFLN
With B1 the “proliferation speed of SL4 tumor cells (tumor volume)” value was “decreased”.
